The text below walks through data of US20110195067A1.

This test deals with FcγRIII (CD16) (human) (UniProt P08637). Put plainly: cell-based or functional assay.
Chain of FcγRIII (CD16) (human) (P08637 17-254): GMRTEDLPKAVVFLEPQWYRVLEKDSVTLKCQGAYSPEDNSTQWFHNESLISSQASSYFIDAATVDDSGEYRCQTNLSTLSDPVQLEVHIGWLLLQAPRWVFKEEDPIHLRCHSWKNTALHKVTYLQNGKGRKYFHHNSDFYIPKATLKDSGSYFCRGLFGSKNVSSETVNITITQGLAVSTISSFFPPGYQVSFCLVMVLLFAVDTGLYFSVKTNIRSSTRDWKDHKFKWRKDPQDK

As for heat aggregated IgG, the IFN-γ secretion from PBMC, aggregated IgG (40 µg/ml) + IL-2 came out at 13 ng/mL; the TNF-α secretion from PBMC, aggregated IgG (40 µg/ml) + IL-2 amounted to 2.46 ng/mL; the fold induction of PBMC proliferation over IL-2, 125 µg/mL of AIG is 16 fold; the proliferative response of PBMC, 125 µg/mL of AIG and IL-2 worked out at 17400 CPM.

Take “anti-CD16 mAb 3G8 (Caltag Laboratories) (antibody)”: the IFN-γ secretion from PBMC, immobilized 3G8 (10 µg/ml) + IL-2 was 9.85 ng/mL; the TNF-α secretion from PBMC, immobilized 3G8 (10 µg/ml) + IL-2 is 3.32 ng/mL; the proliferative response of PBMC ([methyl-3H] thymidine), IL-2 and immobilized anti-CD16 mAb worked out at 15500 CPM; the proliferative response of PBMC ([methyl-3H] thymidine), immobilized anti-CD16 mAb alone stood at 592 CPM.
